Assays:
[1] = biological target: T1, E. coli sigma70-RNAP holoenzyme (Escherichia coli, UniProt P0A7Z4;P0A8V2;P0A8T7;P0A800;P00579 1-329;1-1342;1-1407;2-91;1-613); assay: EMSA; reported to bind more tightly than Paenibacillus sigma70; EMSA: Roche DIG Gel Shift Kit, 0.03 pmol labeled DNA, buffer not stated; footprinting: binding 30 min at 25 C, DNase I 40 s at 37 C; settings: protein: commercial; chain copies: 2;1;1;1;1; label: digoxigenin (DIG Gel Shift Kit); blunt
[2] = biological target: T1, E. coli sigma70-RNAP holoenzyme; assay: EMSA; EMSA: Roche DIG Gel Shift Kit, 0.03 pmol labeled DNA, buffer not stated; footprinting: binding 30 min at 25 C, DNase I 40 s at 37 C; settings: protein: commercial; chain copies: 2;1;1;1;1; blunt

B1: nifB promoter 50 bp (-47 to +3) (dsDNA)
DNA 1: GGAGAAGTGAATTGACTGTATTTGTCCCTGTCTCTAAGATGTAATTATAT
DNA 2: ATATAATTACATCTTAGAGACAGGGACAAATACAGTCAATTCACTTCTCC
binding result [1]: binds

B2: scrambled 39 bp DNA (dsDNA)
DNA 1: GTACGGAGTATCCAGCTCCGTAGCATGCAAATCCTCTGG
DNA 2: CCAGAGGATTTGCATGCTACGGAGCTGGATACTCCGTAC
binding result [2]: no binding

Source: article PMC3798268, “A Minimal Nitrogen Fixation Gene Cluster from Paenibacillus sp. WLY78 Enables Expression of Active Nitrogenase in Escherichia coli”
